US20140228277A1 (Genentech, published 2014)
Starred links: 1 amine or outer side, 2 acyl side, 3 side chain; linkers in the order of their positions; H or OH if unused. Positions of bridges follow the written chain, without caps; N, C: chain ends. NH(CH2)3(OCH2CH2)2O(CH2)3NH = C(CN[*:1])COCCOCCOCCCN[*:2]

What was measured:
Assay in all cases: ELISA; biotinylated BACE020 on plate-coated BACE1 ECD mutant; ratio to WT
[1] = target: T1, human BACE1 ECD (22-457) T133A, His8 (human, UniProt P56817 22-457)
T1 construct: also called T133A (72)
Method: (§1) Maxisorp microtiter plates (Nalge Nunc International, Rochester, N.Y.) were coated overnight at 4° C. with 2 μg/ml BACE1 mutant in 50 mM carbonate, pH 9.6. The coated wells were washed with buffer (PBS, 0.05% Polysorbate 20) and blocked with assay buffer (PBS, pH 7.4, 0.5% BSA, 0.05% Tween 20, 15 ppm Proclin) for 1 h at room temperature with gentle shaking. […] After washing, the amount of peptide bound to the plate was detected by the addition of Streptavidin-Horseradish Peroxidase Conjugate (GE Healthcare, Piscataway, N.J.) followed by the addition of TMB/H₂O₂ substrate (KPL, Gaithersburg, Md.). The reaction was quenched with 1 M phosphoric acid and the A₄₅₀ measured on a Molecular Devices SpectraMax Plus384 microplate reader. Concentrations to give half maximal effective concentration (EC₅₀) were determined using a 4-parameter non-linear regression curve-fitting program with Kaleidagraph (Synergy Software, Reading, Pa.). […] Concentrations to give half maximal inhibition concentration (IC₅₀) were determined using a 4-parameter non-linear regression curve-fitting program with Kaleidagraph.
(§2) The fold decrease in binding affinity was determined as the relative EC₅₀ values of EC₅₀ (mut)/EC₅₀ (WT), which are listed in Table 3.

[2] = target: T2, human BACE1 ECD (22-457) K168A, His8 (human, UniProt P56817 22-457)
T2 construct: also called K168A (107)
Method: as §1, §2

[3] = target: T3, human BACE1 ECD (22-457) W176A, His8 (human, UniProt P56817 22-457)
T3 construct: also called W176A (115)
Method: as §1, §2

[4] = target: T4, human BACE1 ECD (22-457) K285A, His8 (human, UniProt P56817 22-457)
T4 construct: also called K285A (224)
Method: as §1, §2

[5] = target: T5, human BACE1 ECD (22-457) G72A, His8 (human, UniProt P56817 22-457)
T5 construct: also called G72A (11)
Method: as §1, §2

[6] = target: T6, human BACE1 ECD (22-457) Q73A, His8 (human, UniProt P56817 22-457)
T6 construct: also called Q73A (12)
Method: as §1, §2

[7] = target: T7, human BACE1 ECD (22-457) Y132A, His8 (human, UniProt P56817 22-457)
T7 construct: also called Y132A (71)
Method: as §1, §2

T3 sequence (P56817 other isoform, or with tags, fused parts or gaps W176A W176A): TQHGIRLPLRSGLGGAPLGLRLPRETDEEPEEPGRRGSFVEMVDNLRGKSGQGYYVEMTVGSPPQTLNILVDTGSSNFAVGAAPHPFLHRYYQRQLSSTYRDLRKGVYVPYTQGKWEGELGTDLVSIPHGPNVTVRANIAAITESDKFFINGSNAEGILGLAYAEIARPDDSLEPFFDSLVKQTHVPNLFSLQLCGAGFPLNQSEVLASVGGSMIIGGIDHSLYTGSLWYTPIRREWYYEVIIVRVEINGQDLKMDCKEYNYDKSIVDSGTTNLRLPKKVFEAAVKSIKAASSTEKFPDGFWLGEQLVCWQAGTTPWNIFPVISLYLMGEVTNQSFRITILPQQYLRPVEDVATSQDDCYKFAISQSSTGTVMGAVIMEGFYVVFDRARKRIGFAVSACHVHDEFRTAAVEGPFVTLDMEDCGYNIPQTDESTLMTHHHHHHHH
T5 sequence (P56817 other isoform, or with tags, fused parts or gaps G72A G72A): as the sequence (P56817 other isoform, or with tags, fused parts or gaps W176A W176A) above, with G51A, A155W counted along it
T2 sequence (P56817 other isoform, or with tags, fused parts or gaps K168A K168A): as the sequence (P56817 other isoform, or with tags, fused parts or gaps W176A W176A) above, with K147A, A155W counted along it
T6 sequence (P56817 other isoform, or with tags, fused parts or gaps Q73A Q73A): as the sequence (P56817 other isoform, or with tags, fused parts or gaps W176A W176A) above, with Q52A, A155W counted along it
T1 sequence (P56817 other isoform, or with tags, fused parts or gaps T133A T133A): as the sequence (P56817 other isoform, or with tags, fused parts or gaps W176A W176A) above, with T112A, A155W counted along it
T4 sequence (P56817 other isoform, or with tags, fused parts or gaps K285A K285A): as the sequence (P56817 other isoform, or with tags, fused parts or gaps W176A W176A) above, with A155W, K264A counted along it
T7 sequence (P56817 other isoform, or with tags, fused parts or gaps Y132A Y132A): as the sequence (P56817 other isoform, or with tags, fused parts or gaps W176A W176A) above, with Y111A, A155W counted along it

B1: biotinylated BACE020 (Ac-NEESMYCRLLGIGCG-(PEG)3-biotin) (peptide)
peptide: Ac-NEESMYCRLLGIGCG-{NH(CH2)3(OCH2CH2)2O(CH2)3NH-biotin}
modifications: disulfide 7-14
notes: also called C-terminal biotin tagged BACE020 peptide
Fold Decrease in Binding EC50 (Mut)/EC50 (WT) [1]: 1.1 fold
Fold Decrease in Binding EC50 (Mut)/EC50 (WT) [2]: 1 fold
Fold Decrease in Binding EC50 (Mut)/EC50 (WT) [3]: 690 fold
Fold Decrease in Binding EC50 (Mut)/EC50 (WT) [4]: 4 fold
Fold Decrease in Binding EC50 (Mut)/EC50 (WT) [5]: 6.5 fold
Fold Decrease in Binding EC50 (Mut)/EC50 (WT) [6]: 1.7 fold
Fold Decrease in Binding EC50 (Mut)/EC50 (WT) [7]: 72.2 fold
